Data taken from patent publication US20240166738A1 (Alector, published 2024).

B1: TM-70 (antibody, V domains shown)
VH: EVQLVESGGALVKPGGSLKLSCAASGFTFSNYAMSWVRQTPEKRLEWVATIGYGGSYSYYPDSVKGRFTISRDNAKYTLYLQMSGLRSEDTALYYCARQDSNYEGVWFAYWGQGTLVT
VL: not shown
B2: TM-33 (antibody, V domains shown)
VH: EFQLQQSGPELVKPGASVKISCKASGYSFTDYNMNWVKQSNGKSLEWIGVINPNYGTTSYNQKFKGKATLTVDQSSSTAYMQLNSLTSEDSAVYYCASSYWGQGTLVTVSA
VL: DIVMTQSQKFMSTTVGDRVSITCKASQNVGTAVAWYQQKPGQSPKLLIYSASNRYTGVPDRFTGSGSGTDFTLTISNMQSEDLADYFCQQYSSYPYTFGGGTKLEIK
notes: mouse hybridoma mAb
B3: TM-31 (antibody, V domains shown)
VH: QVQLQQSGAELAKPGASVKVSCKASGYTFISYWMNWVKQRPGQGLEWIGYINPTSGYTRYNQKFKDKATLTADKSSSTAYMQLSSLTYEDSAVYYCARSPPTVVLIGYFDYWGQGTTLTVSS
VL: DIKMTQSPSSMYASLGERVTFTCKASQDINSYLSWFQQKPGKSPKTLIYRGNGLVDGVPSRFSGSGSGQDYSLTISSLEYEDMGIYYCLQYDEFPFTFASGTKLEIK
notes: mouse hybridoma mAb
B4: TM-14 (antibody, V domains shown)
VH: QVQLQQSGPELVRPGTSVKVSCKASGYAFTNYLIEWVKQRPGQGLEWIGVINPGGGNTDYSEKFKDKATLTADKSSNTAYIQLSSLTSEDSAVYFCARSPYSSYVGYAVDYWGQGTSVTVSS
VL: DIQMTQSPSSLSASLGERVSLTCRASQDIGSNLNWLQQEPDGTIKRLIYATSSLDSGVPKRFSGSRSGSDYSLTISSLESEDFVVYYCLQYASSPRTFGGGTRLEIK
notes: mouse hybridoma mAb
B5: TM-81 (antibody, V domains shown)
VH: QVQLQQSGAELVKPGASVKLSCKASGYTFTSYWMHWVKQRPGQGLEWIGNIDPSDSEIHYNQKFKDKATLTVDKSSSTAYIQLSSLTSEDSAVYYCARSPAGQILDYWGQGTTVTVSS
VL: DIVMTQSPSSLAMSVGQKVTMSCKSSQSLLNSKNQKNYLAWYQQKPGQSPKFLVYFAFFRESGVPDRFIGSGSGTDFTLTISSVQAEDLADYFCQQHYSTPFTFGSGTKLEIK
notes: mouse hybridoma mAb
B6: TM-82 (antibody, V domains shown)
VH: QVQLQQSGAELVRPGTSVRVSCKASGYAFTNYLIEWIKQRPGQGLEWIGVINPGSGITDYSEKFKGKARLTADKSSSTAYMQLSSLTSDDSAVYFCTRSPFITTVVADYWGQGTTVTVSS
VL: DVVVTQTPLSLPVSFGDQVSISCRSSQSLANTYGNTYLSWYLHTPGQSPQLLIFGISNRFSGVPDRFSGSGSGTDFTLKISTIKPEDLGVYYCLQGTHPPRTFGGGTKLEMK
B7: TM-6 (antibody, V domains shown)
VH: QVQLQQSGAELVKPGASVKLSCKASGYTFTEYTIHWVKQRSGQGLEWIGWFYPGSTYIDYNEKFKDKATLTADKSSSTVYLELSRLTSEDSAVYFCARHEEDYSNWFPFWGQGTLVTVSA
VL: DIQMSQSSSYLSVSLGGRVTITCKASDHINNWLAWYQQKPGNAPRLLISGATSLETGVPSRFSGSGSGKDYTLSITSLQTEDVATYYCQQYWSSPYTFGGGTKLEIK
notes: mouse hybridoma mAb
B8: TM-56 (antibody, V domains shown)
VH: QVHLQQSGAELAKPGASVKLSCKASGYTFTSYWMHWVKQRPGQGLEWIGYINPSSGYSKYNQRFKDKATLTADKSSTTAYMHLSSLTYADSAVYYCTREGGSISDWYFDVWGTGTTVTVSS
VL: DIEMTQAAPSVPVTPGESVSISCRSSKSLLQNNGNTYLYWFLQRPGQPPQLLIYRMSNLASGVPDRFSGSGSGTAFTLRISRVEAEDVGVYYCMQHLEYPYTFGGGTKLEIK
notes: mouse hybridoma mAb
B9: TM-68 (antibody, V domains shown)
VH: EVQLQQSGAELVRPGASVKLSCTASGFNIKDDYMHWVRQRPEQGLEWIGWIDPENGDTEYASKFQGKATMTADTSSNTAYLHLSSLTSEDTAVYYCTKPQTATTCWGQGTLVTVSS
VL: DIVMTQAAFSNPVTLGTSVSISCSSSKSLLHSSGITYLYWYLQRPGQSPQLLIYRMSNLASGVPDRFSGSGSGTDFTLRISRVEAEDVGVYYCAQMLERPWTFGGGTKLEIK
B10: TM-44 (antibody, V domains shown)
VH: EVQLVESGGGLVKPGGSLKLSCAASGFTFSDYGMHWVRQAPEKGLEWVAYISSGSSTIYYADTVKGRFTISRDNAKNTLFLQMTSLRSEDTAMYYCARNYGSPYAMDYWGQGTSVTVSS
VL: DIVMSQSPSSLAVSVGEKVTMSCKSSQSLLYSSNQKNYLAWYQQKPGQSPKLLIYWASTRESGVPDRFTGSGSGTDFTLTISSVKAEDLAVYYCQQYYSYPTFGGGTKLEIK
B11: TM-69 (antibody, V domains shown)
VH: QVQLKESGPDLVQPSQTLSLTCTVSGFSFTSYGVHWVRQPPGKGLEWVGIMGWDDKKYYNSALKSRLSISRDTSKNQVFLKLSSLQTEDTAMYYCTREAGPYGMDYWGQGTSVTVSS
VL: DVVMTQTPLSLPVSLGDQASISCRSSQSLVHSNGNTYLHWYLQKPGQSPKLLIYKVSNRFSGVPDRFSGSGSGTDFTLKISRVEAEDLGVYFCSQNTHVPLTFGAGTKLELK
notes: mouse hybridoma mAb
B12: TM-65 (antibody, V domains shown)
VH: QVQLQQPGAEFVKPGASVRLSCKTSGYTFTSSWMHWVKQRPGQGLEWIGEINPKNGGTNYNEKFKTKATLTVDKSSNTAYMQLSSLTSEDSAVYYCTIPTWFTYWGQGTLVTVSS
VL: DIQMNQSPSSLSASLGDTITITCRASQNINIWLSWYQQKPGNVPKLLIYKASNLHTGVPSRFSGSGSGTGFTLTISSLQPEDIATYYCLQGQSYPYTFGGGTKLGIK
notes: mouse hybridoma mAb
B13: TM-66 (antibody, V domains shown)
VH: EVMLVESGGALVEPGGSLKLSCAASGITFSNYAMSWIRQTPEKRLEWVATIGSVGSYTYYPDSVKGRFTISRDNARNTLYLQMSSLRSEDTAMYYCARQEGSSHFDYWGQGTTLTVSS
VL: DVVVTQTPPSLPVSFGDQVSISCRSSQSLVNSYGKTFLSWYLHKPGQSPQLLIYGISNRFSGVPDRFSGSGSGTVFTLKISTIKPEDLGMYYCLQGTHPPLTFGAGTKLEMK
notes: mouse hybridoma mAb
B14: TM-75 (antibody, V domains shown)
VH: EVQLQQSGPELVKPGASVKMSCKASGYTFTSYVMHWVKQKPGQGLEWIGYINPYNDGTKYNEKFKGKATLTSDKSSSTAYMELSSLTSEDSAVYYCARGGWFPYAMDYWGQGTTVTVSS
VL: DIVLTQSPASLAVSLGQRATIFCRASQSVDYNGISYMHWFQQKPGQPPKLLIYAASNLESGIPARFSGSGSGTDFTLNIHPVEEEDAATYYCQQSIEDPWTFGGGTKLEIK
notes: mouse hybridoma mAb
B15: TM-85 (antibody, V domains shown)
VH: QVQLQQPGAELVRAGTSVKLSCKASGYTFIGYWMHWVKQRPGRGLEWIGRIDPYSGDTRYNEKFKNKATLTVDKPSSTAYMQLSSLTSEDSAVYYCARYGLGHAMDYWGQGTSVTVSS
VL: DIAMSQSQKFMSTSVGDRVSVTCKASQNVGTNVAWYQQKPGQSPKALIYSASYRYSGVPDRFTGSGSGTDFTLTISNVQSEDLAEYFCQQYNSYPLTFGAGTKLEMK
notes: mouse hybridoma mAb
B16: TM-12 (antibody, V domains shown)
VH: EVQLQQSGAELMRPGASVKLSCTASGFNIQDYYMYWVKQRPEQGLEWIGRIDPEDGDAEYAPKFQGKATMTADTSSNTAYLQLSSLTSEDTAVYYCSTRVIYDGYYRTMDCWGQGTSVTVSS
VL: DVLMTQIPLSLPVSLGDQASISCRSSQTIVHSNGNTYLEWYLKKPGQSPKLLIDKISNRFSGVPDRFSGSGSGTDFTLKISRVEAEDLGVYYCFQGSHVPYTFGGGTKLEIK
B17: TM-62 (antibody, V domains shown)
VH: QVQLQQPGTELVRPGSSVKLSCKAAGYTFTRYWMHWVKQRPIQGLEWIGNIDPSDSETQYNPKFKDKATLTVDRSSSTAYMHLSSLTSEDSAVYYCARLTTLDYAMDYWGQGTSVTVSS
VL: QIVLTQSPAIMSASPGEKVTISCSASSSVSYMYWYQQKAGSSPKPWIHRTSNLASGVPARFSGSGSGTSYSLTIRSMEAEDAATYYCQQYHSYPPTFGVGTKLELK
notes: mouse hybridoma mAb
B18: TM-27 (antibody, V domains shown)
VH: QVQLQQSGAELVRPGTSVKVSCKASGYALTNYLIEWVKQRPGQGLEWIGVINPGSGSTKYNEKFKGKATLTADKSSSTAYMQLSSLTSEDSAVYFCARIIYDHDWYFDVWGTGTTVTVSS
VL: QIVLTQSPAIMSASPGEKVTISCSASSSISYMYWYQQKPGSSPKPWIYRTSTLASGVPARFSGSGSGTSYSLTISSMEAEDAATYYCQQYHSYPRTFGGGTKLEIK
notes: mouse hybridoma mAb
B19: TM-49 (antibody, V domains shown)
VH: QVQLQQPGAELVRPGSSVKLSCKASGYTFTRFWMHWVKQRPIQGLEWIGNIDPSDSQTHYNQKFKDKATLTVDKSSSTAYMQLSSLTSEDSAVYYCARLITVDYAMDYWGQGTSVTVSS
VL: QIVLTQSPAIMSASPGEKVTISCSASSSVSYMYWYQQKPGSSPKPWIHRTSNLASGVPVRFSGSGSGTSYSLTISSMEAEDAATYYCQQYHSYPPTFGAGTKLELK
notes: mouse hybridoma mAb
B20: TM-2 (antibody, V domains shown)
VH: HIQLVQSGPELKKPGETVKISCKASGYTFTEYPMHWVKQAPGKGFRWMGMIYTNTGEPTYAAEFKGRFAFSLETSASTGYLQINNLKNEDSATYFCVTAGYWGQGTLVTVSA
VL: QIVLTQSPAILSASPGEKVTMTCRASSSVSYIHWFLQKPGSSPKPWIYATSNLASGVPFRFIGSGSGTSYSLTISGVEAEDSATYYCQQWSSNPSTFGAGTKLELK
notes: mouse hybridoma mAb

What was measured:
human TMEM106B = human TMEM106B (human, UniProt Q9NUM4 2-274); assay: cell-based or functional assay; also: test concentration or dose not given here
[1] = target: T1, GST-TMEM106B (truncated, comprising amino acids 122-210 of SEQ ID NO:1) (human, UniProt Q9NUM4 122-210); assay: pre-mix epitope binning, antibody immobilized on chip array
T1 construct: GST written first by the name only; also called truncated GST-TMEM106B fusion protein; GST-TMEM106B polypeptide fusion; not shown: GST fusion partner

Row | Binder | % Protection from CPE (human TMEM106B) [%] | binding result [1]
1 | B1 | 3.4 | –
2 | B2 | 4.4 | no binding (tested: 55 nM antigen (2 ug/mL))
3 | B3 | 7.7 | no binding (tested: 55 nM antigen (2 ug/mL))
4 | B4 | 4 | no binding (tested: 55 nM antigen (2 ug/mL))
5 | B5 | 4.6 | no binding (tested: 55 nM antigen (2 ug/mL))
6 | B6 | 3.2 | –
7 | B7 | 4.4 | no binding (tested: 55 nM antigen (2 ug/mL))
8 | B8 | 89.7 | no binding (tested: 55 nM antigen (2 ug/mL))
9 | B9 | 3.5 | –
10 | B10 | 3.2 | –
11 | B11 | 4.3 | no binding (tested: 55 nM antigen (2 ug/mL))
12 | B12 | 4 | no binding (tested: 55 nM antigen (2 ug/mL))
13 | B13 | 5.9 | no binding (tested: 55 nM antigen (2 ug/mL))
14 | B14 | 5.1 | no binding (tested: 55 nM antigen (2 ug/mL))
15 | B15 | 5.2 | no binding (tested: 55 nM antigen (2 ug/mL))
16 | B16 | 95.9 | –
17 | B17 | 84.2 | no binding (tested: 55 nM antigen (2 ug/mL))
18 | B18 | 5.2 | no binding (tested: 55 nM antigen (2 ug/mL))
19 | B19 | 49.6 | no binding (tested: 55 nM antigen (2 ug/mL))
20 | B20 | 4.3 | no binding (tested: 55 nM antigen (2 ug/mL))
